# Experimental data: patent publication US20060067910A1, “High-molecular weight derivatives of camptothecins” (priority 2002, published 2006)
# What was measured:
# [1] = Variation in body weight as an indication of toxicity, Colon 26 tumor-bearing mice; format: in vivo, mouse
# Method: Mouse colon cancer Colon 26 tumor under successive cultivation under mouse skin was cut into blocks of approximately 2 mm square, and transplanted to under mouse skin using a trochar. […] As an indication of toxicity, variation in body weight was also measured (Table 2).
# [2] = system: Mouse colon cancer Colon 26 tumor; assay: Antitumor action, relative tumor volume after single intravenous administration; format: in vivo; conditions: with smaller administration amount; single i.v. administration
# Method: As an indication of toxicity, variation in body weight was also measured (Table 2).
substance,measurement,setting,value
"condensate of a block copolymer of methoxypolyethylene glycol having a molecular weight of approximately 12000 and polyglutamic acid having a polymerization number of approximately 28, with 7-ethyl-10-hydroxycamptothecin [Compound 1]",variation in body weight,"[1]; dose 22.5 mg/kg i.v. once, day 0 after administration",1.0
same,variation in body weight,"[1]; dose 22.5 mg/kg i.v. once, day 2 after administration",0.98
same,variation in body weight,"[1]; dose 22.5 mg/kg i.v. once, day 5 after administration",1.02
same,variation in body weight,"[1]; dose 22.5 mg/kg i.v. once, day 9 after administration",1.06
same,variation in body weight,"[1]; dose 22.5 mg/kg i.v. once, day 12 after administration",1.03
same,variation in body weight,"[1]; dose 22.5 mg/kg i.v. once, day 14 after administration",0.96
same,variation in body weight,"[1]; dose 45.0 mg/kg i.v. once, day 0 after administration",1.0
same,variation in body weight,"[1]; dose 45.0 mg/kg i.v. once, day 2 after administration",0.94
same,variation in body weight,"[1]; dose 45.0 mg/kg i.v. once, day 5 after administration",0.91
same,variation in body weight,"[1]; dose 45.0 mg/kg i.v. once, day 7 after administration",0.97
same,variation in body weight,"[1]; dose 45.0 mg/kg i.v. once, day 12 after administration",1.03
same,variation in body weight,"[1]; dose 45.0 mg/kg i.v. once, day 14 after administration",1.04
same,antitumor effect as compared with compound 2 (smaller drug content),[2],higher antitumor effect
"condensate of a block copolymer of mono-methoxypolyethylene glycol having a molecular weight of approximately 12000 and polyglutamic acid having a polymerization number of approximately 7, with 7-ethyl-10-hydroxycamptothecin [Compound 2]",variation in body weight,"[1]; dose 90.0 mg/kg i.v. once, day 0 after administration",1.0
same,variation in body weight,"[1]; dose 90.0 mg/kg i.v. once, day 2 after administration",0.96
same,variation in body weight,"[1]; dose 90.0 mg/kg i.v. once, day 5 after administration",1.00
same,variation in body weight,"[1]; dose 90.0 mg/kg i.v. once, day 12 after administration",0.90
same,variation in body weight,"[1]; dose 90.0 mg/kg i.v. once, day 14 after administration",0.83
same,variation in body weight,"[1]; dose 180.0 mg/kg i.v. once, day 0 after administration",1.0
same,variation in body weight,"[1]; dose 180.0 mg/kg i.v. once, day 2 after administration",0.91
same,variation in body weight,"[1]; dose 180.0 mg/kg i.v. once, day 5 after administration",0.99
same,variation in body weight,"[1]; dose 180.0 mg/kg i.v. once, day 7 after administration",0.99
same,variation in body weight,"[1]; dose 180.0 mg/kg i.v. once, day 9 after administration",1.04
same,variation in body weight,"[1]; dose 180.0 mg/kg i.v. once, day 12 after administration",0.94
same,variation in body weight,"[1]; dose 180.0 mg/kg i.v. once, day 14 after administration",0.94
